Results: patent US12084523 (TECHNION RESEARCH AND DEVELOPMENT FOUNDATION, dated 2024)
Starred links: 1 amine or outer side, 2 acyl side, 3 side chain; linkers in the order of their positions; H or OH if unused. Positions of bridges follow the written chain, without caps; N, C: chain ends. Non-standard residues stand in square brackets, D forms with d. No end group written: not given here. mClBz = N-terminal chlorobenzyl thioether anchor (M*) that cyclises onto the Cys, the meta form of the mClBz/pClBz pair, O=C(c1cccc(C[*:3])c1)[*:2]; code ∗ = not defined here

B1: Ub2ii cyclic peptide (peptide)
peptide: WWYDREYYYLGYGCG
modifications: position 1 is ClAc-D-Trp (M* of Table 2); macrocycle closed between the N-terminal chloroacetyl group and the Cys
notes: also called U2ii
B2: Ub4i cyclic peptide (peptide)
peptide: WGWFDDLYLFVAYCG
modifications: position 1 is ClAc-D-Trp (M* of Table 2); macrocycle closed between the N-terminal chloroacetyl group and the Cys
notes: also called U4i

Tests used:
[1] = target: T1, biotin-^K48Ub4 (chemically synthesized K48-linked tetra-ubiquitin, biotin on the distal Ub) (UniProt P0CG48 1-76, isopeptide bonds from the C-terminus of each Ub to Lys48 of the next Ub; biotin at the N-terminus of the distal Ub); test: SPR (Biacore T100), biotin-Ub chain on the chip, peptide in flow; error 4
T1 construct: mature; also called Ub tetramer

[2] = target: T2, biotin-^K48Ub2 (chemically synthesized K48-linked di-ubiquitin, biotin on the distal Ub) (UniProt P0CG48 1-76, isopeptide bond from the C-terminus of the distal Ub to Lys48 of the proximal Ub; biotin at the N-terminus of the distal Ub); test: SPR, K48-Ub2
T2 construct: mature; also called Lys48-linked ubiquitin dimer

[3] = target: T2, biotin-^K48Ub2 (chemically synthesized …); test: SPR (Biacore T100), biotin-Ub chain on the chip, peptide in flow; error 8
[4] = target: T2, biotin-^K48Ub2 (chemically synthesized …); test: SPR, K48-Ub2; remark: listed apart in the source
[5] = target: T2, biotin-^K48Ub2 (chemically synthesized …); test: SPR (Biacore T100), biotin-Ub chain on the chip, peptide in flow; error 28
[6] = target: T1, biotin-^K48Ub4 (chemically synthesized …); test: SPR (Biacore T100), biotin-Ub chain on the chip, peptide in flow; error 7
[7] = target: T1, biotin-^K48Ub4 (chemically synthesized …); test: SPR (Biacore T100), biotin-Ub chain on the chip, peptide in flow; error 0.002
[8] = target: T1, biotin-^K48Ub4 (chemically synthesized …); test: SPR (Biacore T100), biotin-Ub chain on the chip, peptide in flow; error 7.30E+05
[9] = target: T2, biotin-^K48Ub2 (chemically synthesized …); test: SPR, K48-Ub2; mClBz anchor; wildtype J08, no mutations

Binder | Kd [1] | Kd [2] | Kd [4] | other results
B1 | 14 nM | 33 nM | – | Kd [3]: 33 nM
B2 | – | 90 nM | 90 nM | Kd [5]: 91 nM; Kd [6]: 26 nM
{code ∗}-[dW]LYLDDSGDWWICG (thioether N-13 (inferred); reading uncertain; also: printed as *WLYLDDSGDWWICG, also called U4ix; Ub4xi) [Ub4ix cyclic peptide] | – | – | – | koff [7]: 0.021 s⁻¹; kon [8]: 3.52e+06 M⁻¹ s⁻¹
{CH2CO}-[dW]GWFDNLYWYVTHCG (thioether N-14, also called U2i) [Ub2i cyclic peptide] | 14 nM | – | – | –
mClBz-GWFDDLYLFVAYCG (bridge N-13; not fully specified (bridges), also called J08 (M* = mClBz)) [J08_mClBz] | – | 10 nM | – | Kd [9]: 10 nM
mClBz-GWFDDEYLFVAYCG (bridge N-13; not fully specified (bridges)) [J08_mClBz_L6E] | – | 5 nM | 5 nM | –
